# B1: recombinant human LTA4H: Recombinant human LTA4H (Bio-techne, 4008-SN), leukotriene A4 hydrolase enzyme, dosed by tail vein i.v. injection (protein, UniProt P09960 2-611, looked up)
# Leukotriene A-4 hydrolase: PEIVDTCSLASPASVCRTKHLHLRCSVDFTRRTLTGTAALTVQSQEDNLRSLVLDTKDLTIEKVVINGQEVKYALGERQSYKGSPMEISLPIALSKNQEIVIEISFETSPKSSALQWLTPEQTSGKEHPYLFSQCQAIHCRAILPCQDTPSVKLTYTAEVSVPKELVALMSAIRDGETPDPEDPSRKIYKFIQKVPIPCYLIALVVGALESRQIGPRTLVWSEKEQVEKSAYEFSETESMLKIAEDLGGPYVWGQYDLLVLPPSFPYGGMENPCLTFVTPTLLAGDKSLSNVIAHEISHSWTGNLVTNKTWDHFWLNEGHTVYLERHICGRLFGEKFRHFNALGGWGELQNSVKTFGETHPFTKLVVDLTDIDPDVAYSSVPYEKGFALLFYLEQLLGGPEIFLGFLKAYVEKFSYKSITTDDWKDFLYSYFKDKVDVLNQVDWNAWLYSPGLPPIKPNYDMTLTNACIALSQRWITAKEDDLNSFNATDLKDLSSHQLNEFLAQTLQRAPLPLGHIKRMQEVYNFNAINNSEIRFRWLRLCIQSKWEDAIPLALKMATEQGRMKFTRPLFKDLAAFDKSHDQAVRTYQEHKASMHPVTAMLVGKDLKVD
# How the values were obtained:
# Assay type in all cases: in vivo, mouse
# [1] = system: mRNA levels of neuronal and glial genes; experiment: qPCR of mRNA levels in young mice treated with recombinant human LTA4H protein; details: paradigm 1; vs PBS
# Experimental: (§1) Brain tissue was sectioned or lysed and analyzed for markers of neurogenesis and aging by standard histological and biochemical methods, including qRT-PCR, Western blot, ELISA, and immunohistochemistry.
# (§2) Young, 8-week old wild-type (WT; C57BL/6) mice were homogenized between groups by body weight. Following group determination, mice were injected intraperitoneally (IP) with BrdU (5-bromo-2′-deoxyuridine) formulated in PBS (phosphate buffered saline) at a final concentration of 10 mg/mL dosed at 150 mg/kg for 5 days Immediately following the BrdU dosing, group 1 was injected intravenously (IV) with PBS control and group 2 with recombinant human LTA4H protein daily for 7 consecutive days. One week after the completion of LTA4H administration, in week 3, mice in both treatment groups were injected IP with EdU (5-ethynyl-2′-deoxyuridine) formulated in PBS at a final concentration of 10 mg/mL and dosed at 50 mg/kg for 5 days. Behavioral assays were executed in week 5 and 6, and animals were sacrificed, and tissues collected immediately after completion of behavior testing in week 6. FIG. 3 depicts the treatment paradigm and injection timing for the study.
# FIG. 9 reports the results of quantitative polymerase chain reaction (qPCR) quantifying mRNA levels of vesicular glutamate […] (vglut1), synapsin 1 (syn1), synaptophysin (syp), early growth response 1 (egr1), doublecortin (dcx), beta III tubulin (tuj1), glial acidic fibrillary protein (gfap), SRY-Box 2 (sox2), oligodendrocyte transcription factor 2 in 3 months old (young) wild-type (C57BL/6) mice treated with recombinant human LTA4H protein or phosphate buffered saline (PBS) control. […] Egr1 is an immediate early gene and a reduction in expression is indicative of a depression of neuronal activity. Tuj1 is a neuronal marker and the reduction in expression points to detrimental effects on neurons. […] Overall the decreases in neuronal markers and trends towards decreases in oligodendrocyte markers indicate a detrimental effect on neuronal activity and integrity in LTA4H treated animals. […]
# [2] = system: granule cell layer of the dentate gyrus; experiment: Histology of labeled proliferating cells (EdU, Ki67, BrdU/DCX) in the dentate gyrus of young mice; details: for number of Ki67-labeled cells within the granule cell layer of the dentate gyrus: study week 6; for number of BrdU and DCX co-labeled cells within the granule cell layer of the dentate gyrus: BrdU in week 4
# Experimental: Brains were collected following saline perfusion and separated by mid-sagittal slice with one-half drop fixed in freshly prepared 4% PFA. PFA was changed to 30% sucrose 24-48 hours later. A second change to 30% sucrose occurred 24 hours later. The second half was dissected into hippocampus and cortex and then snap frozen on dry ice.
# as §1, §2
# The initial study in young, 8-week old wild-type (WT; C57BL/6) mice was repeated in a second cohort of mice with additional timepoints and readouts. Mice were homogenized between 3 treatment groups by body weight. Group 1 (Vehicle) was injected intravenously (IV) with PBS control 3 times per week for 6 weeks, group 2 (LTA4H Pulse) with recombinant human LTA4H protein daily for 7 consecutive days, and group 3 (LTA4H Continuous) with recombinant human LTA4H protein 3 times per week for 6 weeks. In week 4 after the initiation of dosing, mice in all treatment groups were injected IP with BrdU (5-bromo-2′-deoxyuridine) formulated in PBS (phosphate buffered saline) at a final concentration of 10 mg/mL dosed at 150 mg/kg for 5 days. Behavioral assays were executed in week 5 and 6, and animals were sacrificed, and tissues collected immediately after completion of behavior testing in week 6. FIG. 10 depicts the treatment paradigm and injection timing for the study.
# [3] = system: 8-week old (young) wild-type (C57BL/6) mice; experiment: Contextual and cued fear conditioning in young mice treated with recombinant human LTA4H protein
# Experimental: Mice were brought into the testing room immediately before their trial to avoid exposure to sounds and scents from testing. Day 1: For training, mice were placed in the chambers, bright house light and fan on, for 2 minutes. Then an auditory cue (2000 Hz, 70 dB, conditioned stimulus (CS)) was presented for 30 seconds. A 2 second foot shock (0.6 mA; unconditioned stimulus (US)) was administered for the final 2 seconds of the CS. This procedure was repeated once, each after a 2 minute interval, and the mouse was removed from the chamber 30 seconds after the second shock. The pans, chamber walls and grid floors were cleaned with 70% ethanol between trials. Day 2: Seventy-two hours after the training, the mouse was returned to the same chamber in which the training occurred (memory for context), and freezing behavior was recorded for 3 min. The mouse was returned to its home cage. The pans, chamber walls, and grid floors were cleaned with 70% ethanol between trials. Day 3: 24 hours after context testing, the mouse was returned to the same chamber and freezing was recorded in a novel environment (altered context) and in response to the cue (memory for cue). […] The mouse was placed in the novel environment and freezing was recorded for 2 minutes. The auditory cue (2000 Hz, 70 dB, CS) was then presented for 30 seconds, and freezing was again recorded for 2 minutes. […]
molecule,measurement,setting,value
B1,egr1 mRNA expression (qPCR),[1],significant decrease
same,olig 2 mRNA expression (qPCR),[1],trend towards a decrease
same,tuj1 mRNA expression (qPCR),[1],significant decrease
same,number of EdU-labeled cells within the granule cell layer of the dentate gyrus,"[2]; paradigm 1, EdU in week 3, vs PBS",significant decrease
same,number of Ki67-labeled cells within the granule cell layer of the dentate gyrus,"[2]; paradigm 1, vs PBS, listed as human recombinant LTA4H protein",significant decrease
same,number of Ki67-labeled cells within the granule cell layer of the dentate gyrus,"[2]; paradigm 1, vs PBS, listed as recombinant LTA4H",fewer Ki67 labeled cells
same,number of BrdU and DCX co-labeled cells within the granule cell layer of the dentate gyrus,[2]; paradigm 2: continuous dosing,significant decrease
same,number of BrdU and DCX co-labeled cells within the granule cell layer of the dentate gyrus,[2]; paradigm 2: pulse dosing,statistical trend towards a decrease
same,percent time freezing during contextual testing,"[3]; 72 hours after training, IV daily for 7 consecutive days, vs PBS",significantly decreased freezing
same,percent time freezing during cued testing,"[3]; pre/post cue tone, difference between treatment groups",no significant difference between treatment groups

# — patent US11344542B2, “Treatment of aging-associated disease with modulators of leukotriene A4 hydrolase” (Alkahest, Inc., priority 2018, dated 2022)
